Test [1] deals with T1, human urokinase-type plasminogen activator receptor (uPAR), cell-bound (human, UniProt Q03405 23-305).
T1 construct: whole, on cells; Full length cDNA expressed on B300.19 and L929 transfectants; endogenous on U937 (and PC-3 used as positive control cells); also called hu-uPAR
The test is described as follows: FACS, B300.19/hu-uPAR cells. On the technique in general: Flow cytometry measures light scatter and fluorescence of single cells or particles in a stream.
Description: Binding of the antibodies to cell-bound uPAR was tested with the murine pre-B cell line B300.19 (ATCC) transfected to express human uPAR, and B300.19 parental cells as a control, using Fluorometric Microvolume Assay Technology (FMAT). 5,000 cells/well were employed for the assay. […] The bound antibodies were detected using goat anti-human IgG Cy5 conjugate at 400 ng/ml (goat anti-mouse IgG Cy5 conjugate for mouse antibody control). […] For each dye stained, the ratio of the GeoMean values between positive and negative cells were tabulated.

The target of test [2] is T2, cynomolgus monkey uPAR, cell-bound (cynomolgus monkey, UniProt Q9GK78 23-305).
T2 construct: whole, on cells; also called cyno-uPAR; uPAR on CHOK1 or 293T transfectants
T2 sequence (Q9GK78 23-305): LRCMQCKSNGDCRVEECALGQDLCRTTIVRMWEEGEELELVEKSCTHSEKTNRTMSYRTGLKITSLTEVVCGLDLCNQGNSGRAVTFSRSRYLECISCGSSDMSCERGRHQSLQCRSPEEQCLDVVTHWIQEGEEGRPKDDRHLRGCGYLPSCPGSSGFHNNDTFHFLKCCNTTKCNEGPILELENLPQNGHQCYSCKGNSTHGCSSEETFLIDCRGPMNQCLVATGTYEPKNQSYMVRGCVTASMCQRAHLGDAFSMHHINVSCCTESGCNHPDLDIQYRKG
The test is described as follows: FACS on 293T cells expressing cynomolgus uPAR, GeoMean of the peak shift.

T1 sequence (Q03405 23-305): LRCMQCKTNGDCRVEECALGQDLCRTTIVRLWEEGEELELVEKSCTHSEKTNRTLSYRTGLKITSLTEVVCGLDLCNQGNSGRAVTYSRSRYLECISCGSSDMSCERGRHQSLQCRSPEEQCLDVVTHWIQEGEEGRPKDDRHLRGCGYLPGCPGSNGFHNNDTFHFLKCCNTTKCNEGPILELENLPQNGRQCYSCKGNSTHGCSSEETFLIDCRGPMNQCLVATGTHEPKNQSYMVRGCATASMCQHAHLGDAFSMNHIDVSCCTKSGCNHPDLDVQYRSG

B1: 4.13.2 (antibody, V domains shown)
VH: EVQLLESGGGLVQPGGSLRLSCAASGFTFSSYAMSWVRQAPGKGLEWVLGISGSGGSTYYADSVKGRFTISRDNSKNTLYLQMNSLRAEDTAVYYCAKDGYGDYVGWYFDLWGRGTLVTVSS
VL: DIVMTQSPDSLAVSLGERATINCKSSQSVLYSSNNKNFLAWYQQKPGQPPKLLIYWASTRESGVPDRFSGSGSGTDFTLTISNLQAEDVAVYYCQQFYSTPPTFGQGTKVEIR
notes: Variable domains only; gamma 4 by chain name, kappa; also called 4.13.1; 4.13.1g4
Take B1: the “gCy5 Geo Mean Pos Cells” value in test [1] amounted to 282.

B2: 3.8.3 (antibody, V domains shown)
VH: EVQLVESGGGLVQPGGSLRLSCAASGFTFSSYWMSWVRQAPGKGLEWVANIKQHGSEKYYVDSVKGRFTISRDNAKNSLYLQMNSLRAEDTAVYYCAREEAYYYDNSGYYWYFDLWARGTLVTVSS
VL: DIQMTQSPSSVSASIGDRVTITCRASQGISSWLAWYQQKPGKTPKLLIYAASSLQSGVPSRFSGSGSGTDFTLTISSLQPEDFATYYCQQADSFPWTFGQGTKVEIK
notes: Variable domains only; gamma 2 by chain name, kappa; also called 3.8.3g2; 3.8.3k
On to B2, for which the binding result in test [2] is given as “binds”.

The record behind these values is patent US20120108797A1 (AstraZeneca / MedImmune, published 2012).
